Test results taken from US20230013244A1 (BioIncept, LLC, priority 2014, published 2023).

Key:
Test in all cases: PIF affinity column + LC-MS/MS, CD14+ cell lysate
Annexin A1 (human) = Annexin A1 (human) (UniProt P04083)
Filamin-A (human) = Filamin-A (human) (UniProt P21333)
Matrin-3 (human) = Matrin-3 (human) (UniProt A8MXP9)
Hornerin (human) = Hornerin (human) (UniProt Q86YZ3)
[1] = target: Tropomyosin alpha-3 chain (human) (UniProt P06753)
[2] = target: Lymphocyte-specific protein 1 (human) (UniProt P33241)
Thrombospondin-1 (human) = Thrombospondin-1 (human) (UniProt P07996)
[3] = target: Protein disulfide-isomerase A4 (human) (UniProt P13667)
Endoplasmin (human) = Endoplasmin (human) (UniProt P14625)
[4] = target: 14-3-3 protein theta (human) (UniProt P27348)
[5] = target: Isoform 2 of Ras suppressor protein 1 (human) (UniProt Q15404)
[6] = target: Tubulin alpha-4A chain (human) (UniProt P68366)
Thymosin alpha-1 (human) = Thymosin alpha-1 (human) (UniProt P06454)
Protein S100-A8 (human) = Protein S100-A8 (human) (UniProt P05109)
[7] = target: 14-3-3 protein eta (human) (UniProt Q04917)
[8] = target: Actin, cytoplasmic 2 (human) (UniProt P63261)
Gelsolin (human) = Gelsolin (human) (UniProt P06396)
[9] = target: Histone-binding protein RBBP7 (human) (UniProt E9PC52)
Tropomodulin-3 (human) = Tropomodulin-3 (human) (UniProt Q9NYL9)
[10] = target: Isoform SV of 14-3-3 protein epsilon (human) (UniProt P62258)
[11] = target: 14-3-3 protein zeta/delta (human) (UniProt P63104)
Talin-1 (human) = Talin-1 (human) (UniProt Q9Y490)
Plastin-2 (human) = Plastin-2 (human) (UniProt P13796)
[12] = target: Nuclear autoantigenic sperm protein (human) (UniProt P49321)
[13] = target: Isoform 2 of Heat shock protein HSP 90-alpha (human) (UniProt P07900)
Vimentin (human) = Vimentin (human) (UniProt P08670)
[14] = target: Isoform 2 of Adenylyl cyclase-associated protein 1 (human) (UniProt Q01518)
Calreticulin (human) = Calreticulin (human) (UniProt P27797)
Myosin-9 (human) = Myosin-9 (human) (UniProt P35579)
[15] = target: Heat shock protein HSP 90-beta (human) (UniProt P08238)
[16] = target: 78 kDa glucose-regulated protein (human) (UniProt P11021)

Sequence of Nuclear autoantigenic sperm protein (human) (P49321 2-788 limits assumed): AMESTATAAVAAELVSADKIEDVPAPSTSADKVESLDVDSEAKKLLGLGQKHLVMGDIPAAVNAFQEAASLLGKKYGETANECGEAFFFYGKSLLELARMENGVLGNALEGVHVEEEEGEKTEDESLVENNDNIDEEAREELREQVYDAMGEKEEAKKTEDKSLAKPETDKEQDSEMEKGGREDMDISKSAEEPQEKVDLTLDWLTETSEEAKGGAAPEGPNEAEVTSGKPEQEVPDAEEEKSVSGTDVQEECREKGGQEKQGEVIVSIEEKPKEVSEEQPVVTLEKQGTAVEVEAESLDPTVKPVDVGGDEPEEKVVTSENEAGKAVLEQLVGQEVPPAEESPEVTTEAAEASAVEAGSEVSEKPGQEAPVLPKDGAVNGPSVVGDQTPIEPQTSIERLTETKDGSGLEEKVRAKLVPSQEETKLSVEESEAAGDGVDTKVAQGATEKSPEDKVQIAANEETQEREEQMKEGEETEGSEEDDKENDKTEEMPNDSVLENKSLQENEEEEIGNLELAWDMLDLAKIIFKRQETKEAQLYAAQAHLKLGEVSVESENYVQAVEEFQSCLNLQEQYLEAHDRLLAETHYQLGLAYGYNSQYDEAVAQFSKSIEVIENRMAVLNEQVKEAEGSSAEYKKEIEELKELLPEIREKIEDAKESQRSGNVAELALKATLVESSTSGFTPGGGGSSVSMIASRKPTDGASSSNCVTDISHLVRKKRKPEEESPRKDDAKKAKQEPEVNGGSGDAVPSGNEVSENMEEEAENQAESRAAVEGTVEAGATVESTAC
Sequence of Plastin-2 (human) (P13796 2-627 limits assumed): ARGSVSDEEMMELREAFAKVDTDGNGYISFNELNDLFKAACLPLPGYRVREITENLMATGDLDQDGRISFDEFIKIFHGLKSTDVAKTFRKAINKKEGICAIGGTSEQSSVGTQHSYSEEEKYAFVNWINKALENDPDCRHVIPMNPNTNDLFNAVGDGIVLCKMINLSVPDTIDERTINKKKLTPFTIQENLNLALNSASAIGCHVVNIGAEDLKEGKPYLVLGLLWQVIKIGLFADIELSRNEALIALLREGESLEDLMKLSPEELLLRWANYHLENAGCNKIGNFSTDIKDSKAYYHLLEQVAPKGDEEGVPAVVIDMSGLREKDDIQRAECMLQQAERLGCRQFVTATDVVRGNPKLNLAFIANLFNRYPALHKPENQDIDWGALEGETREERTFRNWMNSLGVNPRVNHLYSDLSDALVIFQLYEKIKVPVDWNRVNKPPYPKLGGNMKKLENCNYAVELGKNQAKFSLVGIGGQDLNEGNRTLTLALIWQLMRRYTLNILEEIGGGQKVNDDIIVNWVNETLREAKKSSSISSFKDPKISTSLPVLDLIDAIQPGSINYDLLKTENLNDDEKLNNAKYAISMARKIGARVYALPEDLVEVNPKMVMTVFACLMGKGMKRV
Sequence of 14-3-3 protein zeta/delta (human) (P63104 whole entry, stated change not applied): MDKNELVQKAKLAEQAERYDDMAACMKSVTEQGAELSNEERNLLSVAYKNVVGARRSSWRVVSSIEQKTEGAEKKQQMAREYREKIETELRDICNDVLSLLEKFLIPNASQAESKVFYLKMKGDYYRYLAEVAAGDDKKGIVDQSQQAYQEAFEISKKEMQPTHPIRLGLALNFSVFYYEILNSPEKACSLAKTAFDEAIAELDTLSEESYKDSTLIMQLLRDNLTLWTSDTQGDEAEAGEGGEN
Sequence of Isoform 2 of Ras suppressor protein 1 (human) (Q15404 54-277 limits assumed): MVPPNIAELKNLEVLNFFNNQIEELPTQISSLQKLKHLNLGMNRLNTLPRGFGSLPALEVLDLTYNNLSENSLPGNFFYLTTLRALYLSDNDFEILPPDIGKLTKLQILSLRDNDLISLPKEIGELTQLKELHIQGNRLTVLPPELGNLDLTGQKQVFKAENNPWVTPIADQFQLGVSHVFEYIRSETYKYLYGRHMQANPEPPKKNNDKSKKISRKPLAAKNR
Sequence of Thymosin alpha-1 (human) (P06454 other isoform, or with tags, fused parts or gaps limits assumed): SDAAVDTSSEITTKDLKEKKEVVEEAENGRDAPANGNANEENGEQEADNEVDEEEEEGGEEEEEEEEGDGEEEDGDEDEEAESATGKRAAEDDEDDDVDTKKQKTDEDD
Sequence of Vimentin (human) (P08670 2-466 limits assumed): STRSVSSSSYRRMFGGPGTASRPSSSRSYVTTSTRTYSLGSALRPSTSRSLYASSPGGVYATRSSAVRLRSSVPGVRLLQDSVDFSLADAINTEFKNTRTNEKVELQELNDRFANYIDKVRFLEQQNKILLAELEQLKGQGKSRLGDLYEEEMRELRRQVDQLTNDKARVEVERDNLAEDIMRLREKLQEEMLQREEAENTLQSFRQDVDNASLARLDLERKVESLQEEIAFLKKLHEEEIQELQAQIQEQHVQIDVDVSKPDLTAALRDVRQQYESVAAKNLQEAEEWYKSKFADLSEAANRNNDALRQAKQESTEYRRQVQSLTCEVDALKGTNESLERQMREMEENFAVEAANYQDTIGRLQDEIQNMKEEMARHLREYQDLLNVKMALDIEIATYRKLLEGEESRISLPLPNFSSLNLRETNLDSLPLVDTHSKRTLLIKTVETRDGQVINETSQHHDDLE
Sequence of Heat shock protein HSP 90-beta (human) (P08238 2-724 limits assumed): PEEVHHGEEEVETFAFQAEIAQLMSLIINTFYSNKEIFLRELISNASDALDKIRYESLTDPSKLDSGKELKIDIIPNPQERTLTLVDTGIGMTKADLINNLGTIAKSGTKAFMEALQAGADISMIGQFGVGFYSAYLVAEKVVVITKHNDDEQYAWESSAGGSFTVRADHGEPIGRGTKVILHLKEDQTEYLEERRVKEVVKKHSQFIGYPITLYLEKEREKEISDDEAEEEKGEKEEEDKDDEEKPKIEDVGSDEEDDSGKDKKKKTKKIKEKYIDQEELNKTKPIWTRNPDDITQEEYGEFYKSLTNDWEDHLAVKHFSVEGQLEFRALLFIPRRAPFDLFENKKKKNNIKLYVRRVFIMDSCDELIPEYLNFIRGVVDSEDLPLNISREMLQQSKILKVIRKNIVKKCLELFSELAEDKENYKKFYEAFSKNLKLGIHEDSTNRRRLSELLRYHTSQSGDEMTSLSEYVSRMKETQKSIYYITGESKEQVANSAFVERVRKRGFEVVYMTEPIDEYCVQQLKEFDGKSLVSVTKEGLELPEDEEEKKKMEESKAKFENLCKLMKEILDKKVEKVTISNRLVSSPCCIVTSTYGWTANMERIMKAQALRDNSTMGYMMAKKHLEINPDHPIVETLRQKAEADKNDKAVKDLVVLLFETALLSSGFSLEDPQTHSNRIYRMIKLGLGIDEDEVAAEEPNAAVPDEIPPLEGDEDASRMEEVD
Sequence of Endoplasmin (human) (P14625 22-803 limits assumed): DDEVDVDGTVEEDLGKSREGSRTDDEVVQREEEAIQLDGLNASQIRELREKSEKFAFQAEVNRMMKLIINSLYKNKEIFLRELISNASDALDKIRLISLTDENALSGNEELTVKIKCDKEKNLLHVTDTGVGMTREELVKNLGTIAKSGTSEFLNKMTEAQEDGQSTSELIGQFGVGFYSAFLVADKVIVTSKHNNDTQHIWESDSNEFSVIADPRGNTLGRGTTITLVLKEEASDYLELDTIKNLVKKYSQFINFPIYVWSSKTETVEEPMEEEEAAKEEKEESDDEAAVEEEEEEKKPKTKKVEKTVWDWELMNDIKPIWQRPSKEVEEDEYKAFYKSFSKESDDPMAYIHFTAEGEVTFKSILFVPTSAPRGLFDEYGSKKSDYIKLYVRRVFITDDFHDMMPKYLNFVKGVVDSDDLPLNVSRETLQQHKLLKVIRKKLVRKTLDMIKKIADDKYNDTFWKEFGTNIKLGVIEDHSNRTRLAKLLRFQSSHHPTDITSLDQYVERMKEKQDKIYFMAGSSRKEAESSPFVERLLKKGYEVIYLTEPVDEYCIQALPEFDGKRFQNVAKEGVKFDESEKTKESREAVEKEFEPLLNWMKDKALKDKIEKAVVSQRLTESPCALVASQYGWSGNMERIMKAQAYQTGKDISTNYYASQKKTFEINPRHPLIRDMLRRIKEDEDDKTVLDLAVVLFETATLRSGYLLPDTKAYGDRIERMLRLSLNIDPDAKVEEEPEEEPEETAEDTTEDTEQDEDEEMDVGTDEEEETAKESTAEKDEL
Sequence of Annexin A1 (human) (P04083 2-346 limits assumed): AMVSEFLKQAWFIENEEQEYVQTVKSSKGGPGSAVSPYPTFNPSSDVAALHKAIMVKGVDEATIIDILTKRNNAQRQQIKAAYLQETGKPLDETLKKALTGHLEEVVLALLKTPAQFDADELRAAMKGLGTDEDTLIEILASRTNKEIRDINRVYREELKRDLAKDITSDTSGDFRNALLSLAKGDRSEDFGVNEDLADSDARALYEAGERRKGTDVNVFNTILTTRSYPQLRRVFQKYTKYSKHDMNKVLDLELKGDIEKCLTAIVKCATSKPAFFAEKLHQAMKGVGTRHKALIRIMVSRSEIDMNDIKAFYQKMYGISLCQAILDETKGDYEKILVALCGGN
Sequence of 14-3-3 protein theta (human) (P27348 whole entry, canonical isoform): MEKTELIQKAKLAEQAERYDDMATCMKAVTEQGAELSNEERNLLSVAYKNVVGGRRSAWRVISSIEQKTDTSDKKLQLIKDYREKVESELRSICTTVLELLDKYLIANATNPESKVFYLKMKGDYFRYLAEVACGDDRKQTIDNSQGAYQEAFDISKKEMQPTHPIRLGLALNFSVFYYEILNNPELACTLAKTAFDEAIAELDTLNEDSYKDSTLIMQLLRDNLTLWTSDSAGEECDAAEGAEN
Sequence of Histone-binding protein RBBP7 (human) (E9PC52 entry or part of it limits assumed, form in doubt): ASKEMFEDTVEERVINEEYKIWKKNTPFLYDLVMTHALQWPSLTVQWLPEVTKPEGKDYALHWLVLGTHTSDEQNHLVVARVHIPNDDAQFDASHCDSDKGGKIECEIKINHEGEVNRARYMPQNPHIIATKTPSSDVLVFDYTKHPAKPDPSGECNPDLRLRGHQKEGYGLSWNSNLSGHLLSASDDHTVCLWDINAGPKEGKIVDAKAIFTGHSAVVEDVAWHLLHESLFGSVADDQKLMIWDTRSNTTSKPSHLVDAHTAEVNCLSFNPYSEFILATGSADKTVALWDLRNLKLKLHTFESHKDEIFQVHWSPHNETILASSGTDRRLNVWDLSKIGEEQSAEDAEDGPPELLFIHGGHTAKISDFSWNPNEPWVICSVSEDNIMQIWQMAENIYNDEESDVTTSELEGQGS

“PIF-resin (PIF15 affinity ligand on agarose) (peptide)” was tested, and the Ave (Annexin A1 (human)) was 1, the Inject 1 (Annexin A1 (human)) was 0 and the Inject 2 (Annexin A1 (human)) was 0. It also gave an Ave (Filamin-A (human)) of 5, an Inject 1 (Filamin-A (human)) of 5 and an Ave (Matrin-3 (human)) of 1. For the same substance, the Inject 1 (Matrin-3 (human)) was 1, the Inject 3 (Matrin-3 (human)) was 1 and the Ave (Hornerin (human)) was 1. It also gave an Inject 1 (Hornerin (human)) of 1, an Inject 2 (Hornerin (human)) of 0 and an Ave [1] of 4. For the same substance, the Inject 1 [1] was 4, the Inject 3 [1] was 5 and the Inject 1 [2] was 4. The Inject 3 [2] was 1, the Inject 2 (Thrombospondin-1 (human)) was 5 and the Inject 3 (Thrombospondin-1 (human)) was 8. For the same substance, the Inject 1 [3] was 4, the Inject 2 [3] was 1 and the Ave (Endoplasmin (human)) was 1. For the same substance, the Inject 1 (Endoplasmin (human)) was 0, the Inject 3 (Endoplasmin (human)) was 1 and the Ave [4] was 1. The Inject 1 [4] was 1, the Inject 2 [4] was 1 and the Ave [5] was 1. For the same substance, the Inject 1 [5] was 0, the Inject 2 [5] was 1 and the Inject 3 [6] was 1. The Ave (Thymosin alpha-1 (human)) was 5, the Inject 1 (Thymosin alpha-1 (human)) was 5 and the Inject 2 (Thymosin alpha-1 (human)) was 5. It also gave an Inject 3 (Thymosin alpha-1 (human)) of 4, an Inject 2 (Protein S100-A8 (human)) of 1 and an Ave [7] of 1. It also gave an Inject 1 [7] of 1, an Inject 2 [7] of 1 and an Ave [8] of 7. It also gave an Inject 1 [8] of 6, an Inject 2 [8] of 7 and an Inject 3 [8] of 7. For the same substance, the Inject 2 (Gelsolin (human)) was 1, the Inject 3 (Gelsolin (human)) was 1 and the Ave [9] was 1. The Inject 2 [9] was 0, the Inject 3 [9] was 1 and the Ave (Tropomodulin-3 (human)) was 1. For the same substance, the Inject 1 (Tropomodulin-3 (human)) was 1, the Inject 3 (Tropomodulin-3 (human)) was 1 and the Inject 1 [10] was 4. The Inject 2 [10] was 4, the Ave [11] was 4 and the Inject 1 [11] was 4. The Inject 3 [11] was 4, the Inject 1 (Talin-1 (human)) was 5 and the Inject 3 (Talin-1 (human)) was 8. It also gave an Ave (Plastin-2 (human)) of 1, an Inject 1 (Plastin-2 (human)) of 1 and an Inject 2 (Plastin-2 (human)) of 1. For the same substance, the Ave [12] was 1, the Inject 2 [12] was 0 and the Inject 3 [12] was 1. For the same substance, the Ave [13] was 1, the Inject 1 [13] was 1 and the Inject 3 [13] was 1. For the same substance, the Ave (Vimentin (human)) was 10, the Inject 1 (Vimentin (human)) was 9 and the Inject 2 (Vimentin (human)) was 11. The Inject 3 (Vimentin (human)) was 9, the Inject 1 [14] was 4 and the Inject 2 (Calreticulin (human)) was 4. For the same substance, the Ave (Myosin-9 (human)) was 10, the Inject 1 (Myosin-9 (human)) was 11 and the Inject 2 (Myosin-9 (human)) was 9. The Inject 3 (Myosin-9 (human)) was 10, the Ave [15] was 1 and the Inject 2 [15] was 1. The Inject 3 [15] was 1 and the Ave [16] was 4.
